How the values were obtained:
[1] = target: T1, IL-1R (Homo sapiens, UniProt P14778); assay: Smoke conditioned medium induced IL-8 release in BEAS-2B cells; type: cell-based; conditions: 20% smoked medium, 24 hours
T1 sequence (P14778 18-569): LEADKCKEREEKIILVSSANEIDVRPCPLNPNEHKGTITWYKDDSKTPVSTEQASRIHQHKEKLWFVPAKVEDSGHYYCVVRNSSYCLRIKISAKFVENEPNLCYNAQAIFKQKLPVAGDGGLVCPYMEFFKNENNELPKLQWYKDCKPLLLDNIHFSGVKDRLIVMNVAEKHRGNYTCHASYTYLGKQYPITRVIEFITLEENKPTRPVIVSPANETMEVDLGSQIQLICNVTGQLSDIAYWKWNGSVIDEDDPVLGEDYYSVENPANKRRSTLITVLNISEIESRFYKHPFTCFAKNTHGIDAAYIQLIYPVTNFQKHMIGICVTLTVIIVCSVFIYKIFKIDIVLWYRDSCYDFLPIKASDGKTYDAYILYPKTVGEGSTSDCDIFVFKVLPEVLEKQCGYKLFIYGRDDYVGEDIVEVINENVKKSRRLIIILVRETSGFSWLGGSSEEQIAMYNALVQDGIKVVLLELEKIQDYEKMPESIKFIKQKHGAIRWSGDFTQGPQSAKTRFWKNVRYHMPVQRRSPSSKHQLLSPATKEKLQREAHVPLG
Procedure: (§1) The inflammatory response of epithelial cell in vitro was measured in response to smoke conditioned medium, or smoke conditioned medium and virus. The smoke conditioned medium was generated by bubbling cigarette smoke through tissue culture (TC) medium, and is referred to later in this example as ‘smoke’ or ‘smoke treatment’ of the cells. One cigarette with the filter removed bubbled through 25 mL medium is equal to 100% smoked medium. Cigarette smoke treated medium was titrated for IL-8 release and cell confluence on BEAS-2b cells. 20% smoked medium was used for all experiments as it induced pro-inflammatory cytokine release without significant cell death.
(§2) To examine the role of IL-1R in smoke and virus induced inflammation, cells were first smoke treated with a pre-treatment of IL-1R antagonist, and then as required, infected with HRV virus with another pre-treatment of IL-1R antagonist, anakinra. (FIGS. 10A and 10C).
(§3) A lit cigarette (no filter) was connected by tubing to a falcon tube (50 ml capacity) containing tissue culture medium which was supported in a glass flask. A peristaltic pump drew the smoke through the tubing and into the tissue culture medium. The waste smoke was drawn into a beaker of detergent. The whole procedure was performed within a fume cupboard to protect the operator and other users of the lab. The procedure was therefore not sterile. […]

[2] = target: T2, IL-1R1 (Mus musculus, UniProt P13504); assay: Acute tobacco smoke model of lung inflammation (BAL cells); type: in vivo; conditions: Balb/c mice; smoke twice daily; BAL day 5; 35F5/MAB005 15 mg/kg i.p. once daily; anakinra 48 mg/kg/day s.c. by ALZET pump
T2 construct: from tissue; host or cells: living Balb/c mice (lung / systemic), read-out BAL cell counts
T2 sequence (P13504 20-576): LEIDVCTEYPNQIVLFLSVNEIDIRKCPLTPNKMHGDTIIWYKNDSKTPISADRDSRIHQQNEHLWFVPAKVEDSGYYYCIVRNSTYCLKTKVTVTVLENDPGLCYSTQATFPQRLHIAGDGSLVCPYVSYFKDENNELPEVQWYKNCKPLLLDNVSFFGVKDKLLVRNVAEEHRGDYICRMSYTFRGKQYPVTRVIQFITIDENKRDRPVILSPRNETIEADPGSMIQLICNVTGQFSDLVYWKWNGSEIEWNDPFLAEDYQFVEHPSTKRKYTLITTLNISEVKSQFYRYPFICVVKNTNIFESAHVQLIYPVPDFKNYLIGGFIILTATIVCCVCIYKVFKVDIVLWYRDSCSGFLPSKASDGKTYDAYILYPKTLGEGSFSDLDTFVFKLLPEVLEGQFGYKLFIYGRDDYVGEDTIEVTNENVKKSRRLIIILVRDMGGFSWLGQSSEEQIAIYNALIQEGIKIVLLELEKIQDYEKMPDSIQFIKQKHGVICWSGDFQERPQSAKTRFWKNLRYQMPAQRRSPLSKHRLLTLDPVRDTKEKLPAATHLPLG
Source text: The antibody 35F5 is a monoclonal antibody which binds to mouse IL-1R1 and prevents the binding of both IL-1beta and IL-1alpha to the receptor IL-1R1Anakinra antagonises the effects of both IL-1beta and IL-1alpha. […] The data shown in this example confirms that inhibition of IL-1R1 by 35F5 decreases inflammation in an acute model of murine lung inflammation, induced by a stimulus relevant to COPD such as smoke. This is consistent with previous observations in the public domain, and with other studies using IL-1Ra (anakinra; IL-1 receptor antagonist). In this mouse model, cigarette smoke causes significant increases in neutrophil BAL cell numbers after 4 days of smoke inhalation. To investigate the effects of IL-1R1 pathway inhibition on the acute inflammatory response to cigarette smoke inhalation, Balb/c mice were exposed to cigarette smoke twice daily (for 50 minutes) […] and dosed intraperitoneally once daily with either 35F5, isotype control rat IgG1 (MAB005), or saline, starting 48 hours before the first smoke exposure and continuing for 4 days. On Day 5, animals were terminated and BAL was performed. An additional treatment arm was included in which animals were exposed to cigarette smoke as above but dosed sub-cutaneously (SC) continuously with anakinra using infusion pumps (ALZET) starting dosing 48 hours prior to the first smoke exposure. […]

[3] = target: T3, IL-1R1 (Homo sapiens, UniProt P14778); assay: HRV14-induced IL-8 release in BEAS-2b/H292 epithelial cells; conditions: BEAS-2b/H292 cells; PEG purified HRV14; anakinra 25 nM (FIG. 8B)
T3 sequence (P14778 18-569): T1 sequence (P14778 18-569)
Procedure: To investigate the role of IL-1 in human rhinovirus (HRV)-mediated inflammatory response, PEG purified HRV14 was used to infect BEAS-2b/H292 cells (human cells available from the ATCC) while those cells were being exposed to an IL-1R antagonist (FIG. 8A). […] A prototypic inflammatory mediator IL-8 (CXCL-1) was examined after treatment and HRV14 infection of the cells (FIG. 8). […] The concentration of anakinra used on the cells was 25 nM.
Cells used for epithelial smoke and virus work were BEAS-2B cells obtained from ATCC (catalogue number CRL-9609) and grown as per suppliers instructions, or H292s from ECACC (catalogue no 91091815 NCI-H292) also grown according to suppliers instructions. […]
Cells were seeded onto collagen coated flat clear bottomed plates and were incubated at 37° C. […] Anakinra or media was replaced onto cells in 100 ul and the virus was added 30 minutes later at a dilution determined by titres of virus stock on HeLa OHIO cells to determine equivalent activity for each batch made in an additional 100 ul . […]
IL-8 was measured in supernatants using ELISA kit (R&D Systems Duoset DY208) according to manufacturer's instructions and using R&D recombinant protein as standards for the assays.

[4] = target: T2, IL-1R1; assay: Inhaled LPS model of acute lung inflammation (BAL cells); type: in vivo; conditions: Balb/c mice; anakinra by ALZET osmotic pump from 48 hours before inhaled LPS; BAL 48 hours after challenge; vs control LPS treated mice; P<0.001
Source text: Lipopolysaccharide (LPS) is a component of bacterial cell walls of gram negative bacteria. […] The effect of an IL-1R1 antagonist, anakinra, was examined in a mouse model of LPS mediated inflammatory cell influx into the lung. Anakinra inhibited LPS mediated inflammatory cell influx as measured by BAL total cells into the lung by 47% compared to control LPS treated mice (P<0.001) (FIG. 7).
Anakinra was delivered using an ALZET osmotic pump as described for acute smoke model, and was also administered to the mice 48 hours before the LPS administration. Mice were adult female Balb/c mice.
The mice were placed in a semi-open exposure inhalation box (max 10 mice) and were exposed once to aerosolised LPS—total inhalation session time 12 minutes. P. aeriginosa LPS was used at a concentration of 5 mg/ml and was aerosolised using a nebuliser (such as a PariStar Jet Star nebuliser), filled with 5 ml volume and flow from the nebuliser was 5 l/min (Pressure=2 bar). The control groups received the same procedure but with PBS. […] The BAL was then centrifuged—the cell pellet was analysed using standard automated cell counting and differential cell counting. […] The significance of differences between groups was calculated using Student's T test with one-tailed distribution and two-sample unequal variance. […]

[5] = target: T2, IL-1R1; assay: IL-1beta-induced neutrophil mediated inflammation in the mouse lung (BAL); type: in vivo; conditions: Balb/c mice; anakinra subcutaneously 1 hour before IL-1beta 5 ng/50 μl intratracheally; BAL after 4 hours; vs control IL-1 treated animals
Procedure: As noted above, the effect of IL-1R1 antagonist treatment on an IL-1beta-induced neutrophil mediated inflammation in the mouse lung was also examined (FIG. 1B). Anakinra (KINERET™) was dosed subcutaneously one hour before a treatment of IL-1beta of 5 ng/50 μl. After four hours, cell counts were obtained by BAL. Anakinra reduced the cell count by 71% compared to control IL-1 treated animals.
Mice were adult Balb/c females. Anakinra was dosed subcutaneously one hour before IL-1beta was administered intratracheally to the mouse lung using a dose of 5 ng in 50 ul. After 4 hours, the lungs of the mouse were lavaged, essentially as for the acute smoke model (example 2), and total cells and differential cell counts performed.

[6] = target: T1, IL-1R; assay: Smoke plus HRV virus induced IL-8 release in BEAS-2B cells; type: cell-based; conditions: 20% smoked medium then HRV, different anakinra concentrations
Procedure: as §1, §2, §3

Q: How did the “smoke-induced IL-8 response” value [1] turn out when anakinra was run?
A: dose dependent effect

Q: And the “smoke-induced IL-8 response” value ([1]; listed as Anakinra)?
A: partial inhibition

Q: And the “tobacco smoke-induced acute inflammatory cell infiltration in BAL” value [2]?
A: significantly inhibited

Q: What about the “IL-8 levels after HRV14 infection” value [3] of the same substance?
A: reduced

Q: And the “inhibition of LPS mediated inflammatory cell influx (BAL total cells)” value [4]?
A: 47%

Q: What about the “inhibition of IL-1beta-induced increase of neutrophils / cell count in BAL” value [5] of the same substance?
A: 71%

Q: And the “combined smoke and virus IL-8 response” value [6]?
A: Concentration dependent and complete inhibition
